Tested on: Escherichia coli TOP10
Test: shrunken log2 fold change of peptide-encoding DNA abundance (4.5 h post-induction vs induction); higher = less antimicrobial activity (less host growth inhibition)
Details: time post-induction: 4.5 h; library: site-saturation at positions 5, 18, 19, 20
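Also: peptides expressed intracellularly from a pBAD plasmid library in pooled LB shake-flask culture, induced with 0.3% L-arabinose, DNA abundance read by NGS, three biological replicates, DESeq2 with apeglm shrinkage.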

Sequence | shrunken log2 fold change
RRIRFRPPRLPRPRPRPIVGPRP | -0.0769
RRIRQRPPRLPRPRPRPLHEPRP | 0.149
RRIRKRPPRLPRPRPRPRETPRP | 0.0512
RRIRHRPPRLPRPRPRPGNIPRP | -0.227
RRIRGRPPRLPRPRPRPEYSPRP | 0.445
RRIRYRPPRLPRPRPRPHTMPRP | -0.604
RRIRGRPPRLPRPRPRPRRMPRP | 0.706
RRIRKRPPRLPRPRPRPSIYPRP | -0.353
RRIRWRPPRLPRPRPRPVSFPRP | 0.169
RRIRMRPPRLPRPRPRPHYAPRP | -0.128
RRIRPRPPRLPRPRPRPNNWPRP | -0.173
RRIRARPPRLPRPRPRPNGYPRP | 0.122
RRIRLRPPRLPRPRPRPYQLPRP | -0.253
RRIRPRPPRLPRPRPRPREAPRP | 0.44
RRIRPRPPRLPRPRPRPLACPRP | 0.265
RRIRARPPRLPRPRPRPRKQPRP | 0.301
RRIRGRPPRLPRPRPRPIMLPRP | 2.36
RRIRVRPPRLPRPRPRPYSDPRP | -0.145
RRIRSRPPRLPRPRPRPPCEPRP | -0.236
RRIRCRPPRLPRPRPRPNLNPRP | -0.575
RRIRTRPPRLPRPRPRPHWRPRP | 0.027
RRIRSRPPRLPRPRPRPTFVPRP | -0.15
RRIRTRPPRLPRPRPRPTLNPRP | 0.569
RRIRGRPPRLPRPRPRPWTLPRP | 0.161
RRIRSRPPRLPRPRPRPEYKPRP | 0.0361

Sequence | shrunken log2 fold change
RRIRDRPPRLPRPRPRPQQVPRP | 0.0253
RRIRRRPPRLPRPRPRPPYNPRP | -0.019
RRIRCRPPRLPRPRPRPVFMPRP | -0.359
RRIRPRPPRLPRPRPRPWGDPRP | -0.0121
RRIRWRPPRLPRPRPRPQRIPRP | 0.107
RRIRTRPPRLPRPRPRPRQQPRP | 0.349
RRIRQRPPRLPRPRPRPHQHPRP | -0.309
RRIRGRPPRLPRPRPRPTCFPRP | 1.14
RRIRKRPPRLPRPRPRPYYAPRP | -0.0013
RRIRERPPRLPRPRPRPNEQPRP | -0.215
RRIRGRPPRLPRPRPRPNQSPRP | 0.17
RRIRARPPRLPRPRPRPRTGPRP | 0.387
RRIRVRPPRLPRPRPRPPKLPRP | 0.0622
RRIRMRPPRLPRPRPRPVILPRP | -0.826
RRIRNRPPRLPRPRPRPDHWPRP | 0.0703
RRIRKRPPRLPRPRPRPQCAPRP | 0.28
RRIRRRPPRLPRPRPRPMMNPRP | 0.00643
RRIRGRPPRLPRPRPRPMAMPRP | 0.138
RRIRQRPPRLPRPRPRPVFGPRP | 0.13
RRIRQRPPRLPRPRPRPTEFPRP | -0.113
RRIRYRPPRLPRPRPRPITCPRP | 0.014
RRIRIRPPRLPRPRPRPHVTPRP | -0.132
RRIRKRPPRLPRPRPRPTMLPRP | 0.131
RRIRGRPPRLPRPRPRPWAFPRP | 0.488
RRIRSRPPRLPRPRPRPVDDPRP | -0.14

Sequence | shrunken log2 fold change
RRIRGRPPRLPRPRPRPIIWPRP | 0.392
RRIRMRPPRLPRPRPRPVHVPRP | -0.0337
RRIRGRPPRLPRPRPRPIQTPRP | 0.0411
RRIRERPPRLPRPRPRPVNCPRP | -0.315
RRIRRRPPRLPRPRPRPETWPRP | 0.234
RRIRDRPPRLPRPRPRPLWAPRP | 0.0876
RRIRFRPPRLPRPRPRPNWCPRP | -0.107
RRIRNRPPRLPRPRPRPYIYPRP | -0.514
RRIRVRPPRLPRPRPRPIVGPRP | 0.0676
RRIRARPPRLPRPRPRPNAWPRP | 0.44
RRIRERPPRLPRPRPRPLVIPRP | -0.169
RRIRSRPPRLPRPRPRPQEFPRP | -0.00884
RRIRDRPPRLPRPRPRPADFPRP | -0.0606
RRIRKRPPRLPRPRPRPNWLPRP | 0.246
RRIRERPPRLPRPRPRPFTMPRP | -0.585
RRIRWRPPRLPRPRPRPLFIPRP | -0.353
RRIRGRPPRLPRPRPRPCNLPRP | -0.0958
RRIRKRPPRLPRPRPRPPIKPRP | 0.0648
RRIRLRPPRLPRPRPRPKAVPRP | -0.0189
RRIRMRPPRLPRPRPRPKWCPRP | 0.0391
RRIRCRPPRLPRPRPRPWDVPRP | 0.0309
RRIRYRPPRLPRPRPRPKIPPRP | -0.21
RRIRFRPPRLPRPRPRPRTAPRP | 0.162
RRIRERPPRLPRPRPRPVNKPRP | -0.31
RRIRSRPPRLPRPRPRPRDVPRP | -0.0918

Sequence | shrunken log2 fold change
RRIRDRPPRLPRPRPRPGLLPRP | 0.16
RRIRERPPRLPRPRPRPNIHPRP | -0.637
RRIRIRPPRLPRPRPRPKEKPRP | 0.00643
RRIRMRPPRLPRPRPRPFKAPRP | -0.114
RRIRTRPPRLPRPRPRPACRPRP | 0.206
RRIRPRPPRLPRPRPRPAFCPRP | 0.104
RRIRNRPPRLPRPRPRPCHFPRP | -0.166
RRIRDRPPRLPRPRPRPGYDPRP | 0.0286
RRIRWRPPRLPRPRPRPNNGPRP | -0.165
RRIRRRPPRLPRPRPRPKNSPRP | -0.0537
RRIRARPPRLPRPRPRPPETPRP | 0.55
RRIRRRPPRLPRPRPRPVDAPRP | 0.804
RRIRARPPRLPRPRPRPSPWPRP | 0.348
RRIRDRPPRLPRPRPRPEMSPRP | 0.00748
RRIRHRPPRLPRPRPRPCAQPRP | 0.000337
RRIRSRPPRLPRPRPRPDDMPRP | 0.0939
RRIRQRPPRLPRPRPRPSQHPRP | -0.356
RRIRKRPPRLPRPRPRPDQGPRP | -0.0154
RRIRRRPPRLPRPRPRPRLIPRP | 0.874
RRIRIRPPRLPRPRPRPVCVPRP | -0.279
RRIRARPPRLPRPRPRPKNPPRP | 0.196
RRIRIRPPRLPRPRPRPYFIPRP | -1.14
RRIRRRPPRLPRPRPRPWVQPRP | 0.25
RRIRRRPPRLPRPRPRPMEFPRP | 0.0274
RRIRVRPPRLPRPRPRPIKIPRP | -0.251

Sequence | shrunken log2 fold change
RRIRQRPPRLPRPRPRPAWWPRP | 0.95
RRIRPRPPRLPRPRPRPIRKPRP | 0.0224
RRIRPRPPRLPRPRPRPIMDPRP | -0.00126
RRIRHRPPRLPRPRPRPSGEPRP | -0.03
RRIRRRPPRLPRPRPRPDTTPRP | 0.192
RRIRPRPPRLPRPRPRPATTPRP | 0.0694
RRIRLRPPRLPRPRPRPDYCPRP | 0.0561
RRIRERPPRLPRPRPRPAHRPRP | 0.0394
RRIRNRPPRLPRPRPRPYAYPRP | -0.533
RRIRWRPPRLPRPRPRPNPIPRP | -0.149
RRIRRRPPRLPRPRPRPFIEPRP | 0.0206
RRIRGRPPRLPRPRPRPMPGPRP | 0.479
RRIRLRPPRLPRPRPRPIMMPRP | -0.0614
RRIRQRPPRLPRPRPRPQICPRP | -0.229
RRIRRRPPRLPRPRPRPYRHPRP | -0.265
RRIRWRPPRLPRPRPRPNVWPRP | -0.308
RRIRPRPPRLPRPRPRPKWPPRP | -0.0466
RRIRFRPPRLPRPRPRPKSFPRP | -0.0388
RRIRMRPPRLPRPRPRPDRLPRP | 0.55
RRIRSRPPRLPRPRPRPWKRPRP | -0.000813
RRIRKRPPRLPRPRPRPQEYPRP | -0.0576
RRIRHRPPRLPRPRPRPFVNPRP | -0.124
RRIRYRPPRLPRPRPRPGCMPRP | -0.546
RRIRYRPPRLPRPRPRPNGTPRP | -0.424
RRIRDRPPRLPRPRPRPTAAPRP | 0.457

Sequence | shrunken log2 fold change
RRIRARPPRLPRPRPRPFYCPRP | -0.402
RRIRRRPPRLPRPRPRPDRVPRP | -0.203
RRIRWRPPRLPRPRPRPNPEPRP | -0.0123
RRIRGRPPRLPRPRPRPHFHPRP | 0.603
RRIRFRPPRLPRPRPRPARAPRP | 1.31
RRIRVRPPRLPRPRPRPLMHPRP | -0.249
RRIRDRPPRLPRPRPRPKSQPRP | 0.231
RRIRFRPPRLPRPRPRPYAVPRP | -0.419
RRIRRRPPRLPRPRPRPHQMPRP | 0.19
RRIRQRPPRLPRPRPRPIIQPRP | -0.248
RRIRARPPRLPRPRPRPNREPRP | 0.226
RRIRQRPPRLPRPRPRPNMIPRP | -0.209
RRIRNRPPRLPRPRPRPYLNPRP | -0.487
RRIRVRPPRLPRPRPRPNKFPRP | -0.255
RRIRSRPPRLPRPRPRPPWRPRP | 0.614
RRIRLRPPRLPRPRPRPPKWPRP | 0.532
RRIRGRPPRLPRPRPRPKKLPRP | 0.39
RRIRPRPPRLPRPRPRPCSQPRP | -0.257
RRIRCRPPRLPRPRPRPFILPRP | -0.898
RRIRFRPPRLPRPRPRPNTVPRP | -0.363
RRIRYRPPRLPRPRPRPHVFPRP | -0.0822
RRIRNRPPRLPRPRPRPSDAPRP | 0.0594
RRIRPRPPRLPRPRPRPEFTPRP | 0.26
RRIRHRPPRLPRPRPRPRVMPRP | 0.0966
RRIRTRPPRLPRPRPRPDFSPRP | -0.0283

Source: the supplement of paper PMC9112550, “Optimization of the antimicrobial peptide Bac7 by deep mutational scanning” (BMC Biology, 2022)
